Measurements reported in US20190233528A1 (published 2019).

T1: human CD70 expressed on parental (WT) Jurkat cells (human, UniProt P32970 1-193)
T1 sequence: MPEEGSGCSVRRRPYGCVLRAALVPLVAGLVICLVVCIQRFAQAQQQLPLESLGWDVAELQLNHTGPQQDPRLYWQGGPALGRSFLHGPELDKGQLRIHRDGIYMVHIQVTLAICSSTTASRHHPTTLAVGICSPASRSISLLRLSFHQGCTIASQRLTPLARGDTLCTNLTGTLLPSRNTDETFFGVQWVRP

T2: recombinant biotinylated human CD70 protein (human, UniProt P32970 39-193, biotinylated (site not stated))
T2 construct: also called recombinant biotinylated hCD70 protein
T2 sequence: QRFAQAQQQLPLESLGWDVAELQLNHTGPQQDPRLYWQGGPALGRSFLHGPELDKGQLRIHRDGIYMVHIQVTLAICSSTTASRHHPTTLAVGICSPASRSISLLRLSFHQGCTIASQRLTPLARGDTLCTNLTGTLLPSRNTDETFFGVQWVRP

T3: recombinant human CD70 (AviTag, polyhistidine tag and chicken tenascin trimerization domain fused to the … (chicken; human, UniProt P10039 110-139, limits assumed)
T3 construct: domain: trimerization domain; Expressed in Expi293, purified by IMAC and SEC; Copies 3 is inferred from the trimerization domain; not shown: AviTag; polyhistidine tag
T3 sequence: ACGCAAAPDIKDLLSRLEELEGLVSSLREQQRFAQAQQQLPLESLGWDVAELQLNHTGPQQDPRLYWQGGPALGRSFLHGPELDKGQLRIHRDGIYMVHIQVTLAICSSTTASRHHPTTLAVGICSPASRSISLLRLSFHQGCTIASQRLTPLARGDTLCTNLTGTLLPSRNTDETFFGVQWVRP


Columns and labels:
[1] = molecular target: T1, human CD70 expressed on parental (WT) …; test: cell-based or functional assay
[2] = molecular target: T2, recombinant biotinylated human CD70 …; test: flow cytometry: CAR-transduced Jurkat cells incubated with recombinant biotinylated human CD70, streptavidin-PE; percent of cells binding
Experimental: On Day 5, transduced cells were stained with human anti-CD69 antibody conjugated to PE-Cy7 and acquired on a flow cytometer to obtain percentage of CD69+ population for each CAR. […] Activation ratios (WT activation/KO activation) and protein binding were used to rank CARs.
Table 7: Activation ratio and protein binding of phage CARs were determined in the Jurkat screen. Activation ratio was used for in vitro characterization of CARs. Activation ratio was determined by calculating the ratio of the percentage of CD69 expression on WT Jurkat cells transduced with CD70 CAR (WT) to that on CD70 knockout Jurkat cells transduced with CD70 CAR (KO). A higher activation ratio indicates target-dependent activation. […] Protein binding values indicate the percentage of CD3+ CAR T cells that bind to human CD70 protein.

[3] = molecular target: T3, recombinant human CD70 (AviTag, …); test: SPR (Biacore 8K, 37 C): CD70 captured via anti-AviTag antibody on C1 chip, scFv-Fc as analyte; 1:1 Langmuir fit
Experimental: The antibody binding kinetics were determined by surface plasmon resonance (Biacore 8K, GE Healthcare Bio-Sciences, Pittsburgh Pa.) at 37° C. in HBS-T+ (0.01 M HEPES pH 7.4, 0.15 M NaCl, 0.05% v/v Tween20, 1 mg/mL BSA). Recombinant human CD70 diluted in HBS-T+ was captured on a C1 chip immobilized with an anti-AviTag™ antibody. Purified anti-CD70 scFv-Fc fusions were serially diluted into HBS-T+, injected at 30 uL/min for 2-4 min, dissociation monitored for 10 min then the surface regenerated with 75 mM phosphoric acid between injections. Buffer cycles were collected for each anti-CD70 scFv-Fc fusion for double-referencing purposes (double-referencing as described in Myszka, D. G. Improving biosensor analysis. J. Mol. Recognit. 12, 279-284 (1999)). Kinetic association rates (kₒₙ) and dissociation rates (koff) were obtained simultaneously by fitting the double-referenced sensorgrams globally to a 1:1 Langmuir with mass transport model using Biacore 8K Evaluation Software (GE Healthcare Bio-Sciences, Pittsburgh Pa.) then used to calculate an equilibrium dissociation constant (KD) from the kinetic rate constants (KD=koff/kₒₙ). The data was fit to a 1:1 steady state affinity model using Biacore 8K Evaluation Software to determine a steady state equilibrium dissociation constant (SS KD) as needed.

Binder | Activation ratio (WT/KO) [1] | Protein binding (%) [2] [%] | Kd [3] [nM] | koff [3] [s⁻¹] | kon [3] [M⁻¹ s⁻¹] | t1/2 [3] [min]
P08G02 CD70-specific CAR (other, Chimeric antigen receptor on transduced Jurkat cells; the signal peptide is left out) EVQLVQSGAEVKKPGESLKISCKGSGYTFPSSWIGWVRQMPGKGLEWMGIIYPDTSHTRYSPSFQGQVTISADKSISTAYLQWSSLKASDTAMYYCARASYFDRGTGYSSWWMDVWGQGTLVTVSSGGGGSGGGGSGGGGSGGGGSELDIQMTQSPSSLSASVGDRVTITCRASQSIYDYLHWYQQKPGKAPKLLIYDASNLQSGVPSRFSGSGSGTDFTLTISSLQPEDFATYYCQQSYTTPLFTFGQGTKVEIKTTTPAPRPPTPAPTIASQPLSLRPEACRPAAGGAVHTRGLDFACDIYIWAPLAGTCGVLLLSLVITLYCKRGRKKLLYIFKQPFMRPVQTTQEEDGCSCRFPEEEEGGCELRVKFSRSADAPAYQQGQNQLYNELNLGRREEYDVLDKRRGRDPEMGGKPRRKNPQEGLYNELQKDKMAEAYSEIGMKGERRRGKGHDGLYQGLSTATKDTYDALHMQALPPR | 2.11 | 77.8 | – | – | – | –
P12F02 anti-CD70 scFv-Fc fusion (Fc fusion, scFv-Fc expressed in Expi293; not shown: part of the hinge and Fc from a modified human IgG2) EVQLLESGGGLVQPGGSLRLSCAASGFTFSSYAMSWVRQAPGKGLEWVSTISGTGGTTYYADSVKGRFTISRDNSKNTLYLQMNSLRAEDTAVYYCAKVRAGIDPTASDVWGQGTLVTVSSGGGGSGGGGSGGGGSGGGGSELQSVLTQPPSASGTPGQRVTISCSGSTSNIGRNYVYWYQQLPGTAPKLLIYRTNQRPSGVPDRFSGSKSGTSASLAISGLRSEDEADYYCAAWDDSLSGRVFGTGTKLTVL | – | – | 5.7 | 0.00155 | 275000 | 7.4
P02B10 CD70-specific CAR (other, Chimeric antigen receptor on transduced Jurkat cells; the signal peptide is left out) EVQLLESGGGLVQPGGSLRLSCAASGFAFSNYAMSWVRQAPGKGLEWVSAIRGGGGSTYYADSVKGRFTISRDNSKNTLYLQMNSLRAEDTAVYYCARDFISGTWYPDYWGQGTLVTVSSGGGGSGGGGSGGGGSGGGGSELQSVLTQPPSASGTPGQRVTISCSGSSSNIGSNYVYWYQQLPGTAPKLLIYRNNQRPSGVPDRFSGSKSGTSASLAISGLRSEDEADYYCAAWDDSLSGVVFGGGTKLTVLTTTPAPRPPTPAPTIASQPLSLRPEACRPAAGGAVHTRGLDFACDIYIWAPLAGTCGVLLLSLVITLYCKRGRKKLLYIFKQPFMRPVQTTQEEDGCSCRFPEEEEGGCELRVKFSRSADAPAYQQGQNQLYNELNLGRREEYDVLDKRRGRDPEMGGKPRRKNPQEGLYNELQKDKMAEAYSEIGMKGERRRGKGHDGLYQGLSTATKDTYDALHMQALPPR | 2.81 | 77.9 | – | – | – | –
P08E02 CD70-specific CAR (other, Chimeric antigen receptor on transduced Jurkat cells; the signal peptide is left out) EVQLVQSGAEVKKPGESLKISCKGSGYSFTSSWIGWVRQMPGKGLEWMGIIYPGDSDTRYSPSFQGQVTISADKSISTAYLQWSSLKASDTAMYYCAKGLSQAMTGFGFDYWGQGTLVTVSSGGGGSGGGGSGGGGSGGGGSELDIQMTQSPSSLSASVGDRVTITCRASQSISRYLNWYQQKPGKAPKLLIYAASILQTGVPSRFSGSGSGTDFTLTISSLQPEDFATYYCQQSYSTTMWTFGQGTKVEIKTTTPAPRPPTPAPTIASQPLSLRPEACRPAAGGAVHTRGLDFACDIYIWAPLAGTCGVLLLSLVITLYCKRGRKKLLYIFKQPFMRPVQTTQEEDGCSCRFPEEEEGGCELRVKFSRSADAPAYQQGQNQLYNELNLGRREEYDVLDKRRGRDPEMGGKPRRKNPQEGLYNELQKDKMAEAYSEIGMKGERRRGKGHDGLYQGLSTATKDTYDALHMQALPPR | 3.29 | 57.1 | – | – | – | –
P08F08 CD70-specific CAR (other, Chimeric antigen receptor on transduced Jurkat cells; the signal peptide is left out) EVQLVQSGAEVKKPGESLKISCKGSGYGFTSYWIGWVRQMPGKGLEWMGIIHPDDSDTKYSPSFQGQVTISADKSISTAYLQWSSLKASDTAMYYCASSYLRGLWGGYFDYWGQGTLVTVSSGGGGSGGGGSGGGGSGGGGSELQSVLTQPPSASGTPGQRVTISCSGSSSNIGSNYVNWYQQLPGTAPKLLIYGDYQRPSGVPDRFSGSKSGTSASLAISGLRSEDEADYYCATRDDSLSGSVVFGTGTKLTVLTTTPAPRPPTPAPTIASQPLSLRPEACRPAAGGAVHTRGLDFACDIYIWAPLAGTCGVLLLSLVITLYCKRGRKKLLYIFKQPFMRPVQTTQEEDGCSCRFPEEEEGGCELRVKFSRSADAPAYQQGQNQLYNELNLGRREEYDVLDKRRGRDPEMGGKPRRKNPQEGLYNELQKDKMAEAYSEIGMKGERRRGKGHDGLYQGLSTATKDTYDALHMQALPPR | 3.42 | 35.9 | – | – | – | –
P12B09 CD70-specific CAR (other, Chimeric antigen receptor on transduced Jurkat cells; the signal peptide is left out) EVQLLESGGGLVQPGGSLRLSCAASGFTFSQYSMSWVRQAPGKGLEWVSAISGGGVSTYYADSVKGRFTISRDNSKNTLYLQMNSLRAEDTAVYYCASDISDSGGSHWYFDYWGQGTLVTVSSGGGGSGGGGSGGGGSGGGGSELDIQMTQSPSSLSASVGDRVTITCRASQYIGRYLNWYQQKRGKAPKLLIHGATSLASGVPSRFSGSGSGTDFTLTISSLQPEDFATYYCQQSYSTTSPTFGQGTKVEIKTTTPAPRPPTPAPTIASQPLSLRPEACRPAAGGAVHTRGLDFACDIYIWAPLAGTCGVLLLSLVITLYCKRGRKKLLYIFKQPFMRPVQTTQEEDGCSCRFPEEEEGGCELRVKFSRSADAPAYQQGQNQLYNELNLGRREEYDVLDKRRGRDPEMGGKPRRKNPQEGLYNELQKDKMAEAYSEIGMKGERRRGKGHDGLYQGLSTATKDTYDALHMQALPPR | 4.34 | 5.74 | – | – | – | –
P13F04 anti-CD70 scFv-Fc fusion (Fc fusion, scFv-Fc expressed in Expi293; not shown: part of the hinge and Fc from a modified human IgG2) QVQLVQSGAEVKKPGSSVKVSCKASGGTFSSYAISWVRQAPGQGLEWMGEIIPIFGTASYAQKFQGRVTITADESTSTAYMELSSLRSEDTAVYYCARAGWDDSWFDYWGQGTLVTVSSGGGGSGGGGSGGGGSGGGGSELQSVLTQPPSASGTPGQRVTISCSGSNSNIGTNYVSWYQQLPGTAPKLLIYRSSRRPSGVPDRFSGSKSGTSASLAISGLRSEDEADYYCAAWDGSLSGHWVFGTGTKLTVL | – | – | 205 | 0.02 | 97700 | 0.6
P08A02 CD70-specific CAR (other, Chimeric antigen receptor on transduced Jurkat cells; the signal peptide is left out) EVQLVQSGAEVKKPGESLKISCKGSGYTFTNYWIAWVRQMPGKGLEWMGIIYPDGSDTRYSPSFQGQVTISADKSISTAYLQWSSLKASDTAMYYCARDITSWYYGEPAFDIWGQGTLVTVSSGGGGSGGGGSGGGGSGGGGSELQSVLTQPPSASGTPGQRVTISCSGSSSNIGSNYVYWYQQLPGTAPKLLIYRNNQRPSGVPDRFSGSKSGTSASLAISGLRSEDEADYYCATWDDSLGSPVFGTGTKLTVLTTTPAPRPPTPAPTIASQPLSLRPEACRPAAGGAVHTRGLDFACDIYIWAPLAGTCGVLLLSLVITLYCKRGRKKLLYIFKQPFMRPVQTTQEEDGCSCRFPEEEEGGCELRVKFSRSADAPAYQQGQNQLYNELNLGRREEYDVLDKRRGRDPEMGGKPRRKNPQEGLYNELQKDKMAEAYSEIGMKGERRRGKGHDGLYQGLSTATKDTYDALHMQALPPR | 14.4 | 20.7 | – | – | – | –
P07D03 CD70-specific CAR (other, Chimeric antigen receptor on transduced Jurkat cells; the signal peptide is left out) EVQLVQSGAEVKKPGESLKISCKGSGYRFTSYWIGWVRQMPGKGLEWMGSIYPDDSDTRYSPSFQGQVTISADKSISTAYLQWSSLKASDTAMYYCASSTVDYPGYSYFDYWGQGTLVTVSSGGGGSGGGGSGGGGSGGGGSELQSVLTQPPSASGTPGQRVTISCSGSRSNIGSNYVYWYQQLPGTAPKLLIYRNNQRPSGVPDRFSGSKSGTSASLAISGLRSEDEADYYCASWDGSLSAVVFGTGTKLTVLTTTPAPRPPTPAPTIASQPLSLRPEACRPAAGGAVHTRGLDFACDIYIWAPLAGTCGVLLLSLVITLYCKRGRKKLLYIFKQPFMRPVQTTQEEDGCSCRFPEEEEGGCELRVKFSRSADAPAYQQGQNQLYNELNLGRREEYDVLDKRRGRDPEMGGKPRRKNPQEGLYNELQKDKMAEAYSEIGMKGERRRGKGHDGLYQGLSTATKDTYDALHMQALPPR | 3.04 | 0.68 | – | – | – | –
